Legend:
MafG homodimer [1] = biological target: MafG homodimer (UniProt O15525); experiment: SPR; conditions: pH 7.9; for Kd: 20 mM Hepes, 200 mM NaCl, 4 mM MgCl2, 1 mM EDTA, BSA
MafG homodimer [2] = biological target: MafG homodimer (UniProt O15525); experiment: EMSA; conditions: gel mobility shift assay comparison, probe details not given
[3] = 5' thiol on anchor strand (immobilized)

Chain of MafG homodimer (O15525 whole entry): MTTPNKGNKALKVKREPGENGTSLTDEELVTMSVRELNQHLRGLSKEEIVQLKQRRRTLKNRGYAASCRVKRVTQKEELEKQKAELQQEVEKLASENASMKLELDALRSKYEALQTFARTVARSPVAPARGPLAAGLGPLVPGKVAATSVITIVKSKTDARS

Question: With “TTTTTTTTTTTTTTTCGGAATTGCTGATTCAGCCTTACTC (double strand) [hOPSIN]” as the sequence, how does the Kd (MafG homodimer [1]; 5' thiol on anchor strand (immobilized) [variable site 22-34 (TGCTGATTCAGCC), 5' thiol linker at 1 left out], listing SEQ 7 has 14 nt, Table 2 prints 13 nt) read?
Answer: Its Kd is 7.67 nM.

Question: And the Kd (MafG homodimer [2]; 5' thiol on anchor strand (immobilized) [variable site 22-34 (TGCTGATTCAGCC), 5' thiol linker at 1 left out])?
Answer: The Kd was 252 nM.

Question: “TTTTTTTTTTTTTTTCGGAATAGTTGACTCAGCATTACTC (double strand) [hNQO1m]” was tested. Which Kd (MafG homodimer [1]; [3]) did it give?
Answer: The Kd was 8.58 nM.

Question: What about the Kd (MafG homodimer [2]; [3]) of the same sequence?
Answer: Its Kd is 273 nM.

Question: Which Ka (MafG homodimer [1]; 5' thiol on anchor strand (immobilized), 10 mM Hepes, 300 mM NaCl, 4 mM Mg, 1 mM EDTA, ka 2.22e5 M-1s-1, kd 8.80e-4 s-1, Example 1 sequence printed only in figure) does the source give for “TTTTTTTTTTTTTTTCGGAATTGCTGACTCAGCATTACTC (double strand) [MARE 25]” here?
Answer: The Ka was 2.52e+08 M⁻¹.

Question: What about the Kd (MafG homodimer [1]; 5' thiol on anchor strand (immobilized), SPR imaging) of the same sequence?
Answer: The Kd was 2.5 nM.

Question: What about the Kd (MafG homodimer [2]; [3]) of the same sequence?
Answer: The Kd was 249 nM.

— US20040191815
